The values below are quoted from earlier work in PMC7687155.

Usually pKd stands for −log10 of the Kd, conventionally taken in molar units.

pKd: −log10 of the molar value.

The series addresses Sep15 (Homo sapiens) (UniProt O60613).

Sequence of Sep15 (Homo sapiens) (O60613 32-165): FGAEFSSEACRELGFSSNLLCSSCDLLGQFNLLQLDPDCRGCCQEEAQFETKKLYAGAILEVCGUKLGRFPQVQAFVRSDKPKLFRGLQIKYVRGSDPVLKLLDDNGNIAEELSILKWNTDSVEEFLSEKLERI
Sequence of UGGT1 (Q9NYU2 43-1555): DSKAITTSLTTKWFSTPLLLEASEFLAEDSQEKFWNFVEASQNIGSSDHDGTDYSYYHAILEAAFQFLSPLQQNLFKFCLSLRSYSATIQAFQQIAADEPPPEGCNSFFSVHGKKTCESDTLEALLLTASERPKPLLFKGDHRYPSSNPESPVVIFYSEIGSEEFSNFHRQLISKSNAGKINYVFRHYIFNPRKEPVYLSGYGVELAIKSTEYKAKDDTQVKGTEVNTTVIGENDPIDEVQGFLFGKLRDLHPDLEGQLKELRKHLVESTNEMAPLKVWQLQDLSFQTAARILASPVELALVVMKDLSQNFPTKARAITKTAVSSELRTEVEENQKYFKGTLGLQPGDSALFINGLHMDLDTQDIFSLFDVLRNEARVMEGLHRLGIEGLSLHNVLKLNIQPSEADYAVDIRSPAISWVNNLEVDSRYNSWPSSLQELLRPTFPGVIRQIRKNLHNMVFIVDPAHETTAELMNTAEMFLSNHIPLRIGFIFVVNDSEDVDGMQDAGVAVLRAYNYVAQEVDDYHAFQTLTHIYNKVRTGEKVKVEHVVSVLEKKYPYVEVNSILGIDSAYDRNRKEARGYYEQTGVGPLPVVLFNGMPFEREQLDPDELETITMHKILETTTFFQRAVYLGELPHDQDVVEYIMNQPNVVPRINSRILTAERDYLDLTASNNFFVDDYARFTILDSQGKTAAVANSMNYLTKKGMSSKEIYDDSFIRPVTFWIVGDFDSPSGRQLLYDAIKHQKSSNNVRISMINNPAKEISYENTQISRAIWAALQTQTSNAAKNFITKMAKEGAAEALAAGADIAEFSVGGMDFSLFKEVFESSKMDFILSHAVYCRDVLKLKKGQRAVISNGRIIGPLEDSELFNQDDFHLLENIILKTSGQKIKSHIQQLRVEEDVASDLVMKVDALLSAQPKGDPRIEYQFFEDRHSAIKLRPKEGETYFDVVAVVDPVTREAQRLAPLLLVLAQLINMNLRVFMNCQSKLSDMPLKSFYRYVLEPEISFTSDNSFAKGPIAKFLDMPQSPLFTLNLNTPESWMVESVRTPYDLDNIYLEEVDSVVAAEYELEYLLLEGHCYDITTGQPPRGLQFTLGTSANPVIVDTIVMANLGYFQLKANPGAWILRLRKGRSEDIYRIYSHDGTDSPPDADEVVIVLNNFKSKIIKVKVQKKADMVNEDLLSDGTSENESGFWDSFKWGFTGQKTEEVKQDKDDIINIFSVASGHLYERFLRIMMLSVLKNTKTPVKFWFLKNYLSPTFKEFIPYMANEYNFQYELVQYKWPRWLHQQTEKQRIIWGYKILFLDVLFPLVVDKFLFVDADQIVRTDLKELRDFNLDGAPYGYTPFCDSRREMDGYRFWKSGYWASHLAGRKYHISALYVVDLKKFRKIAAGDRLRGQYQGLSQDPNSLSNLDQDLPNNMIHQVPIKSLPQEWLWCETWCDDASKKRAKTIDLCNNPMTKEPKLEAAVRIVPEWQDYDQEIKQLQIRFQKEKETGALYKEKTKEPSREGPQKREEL

Consider UGGT1 (from UniProt Q9NYU2), for which the pKd was 7.70.
